Measurements: patent publication US20240383984A1 (Genentech, published 2024)

What was measured:
[1] = target: T1, human FcRH3 (BIACORE analyte) (human, UniProt Q96P31 18-573, limits assumed); assay: SPR (BIACORE), TDB captured as ligand, FcRH3 as analyte, 25 °C, 1:1 binding model
T1 construct: also called huFcRH3
T1 sequence (looked up): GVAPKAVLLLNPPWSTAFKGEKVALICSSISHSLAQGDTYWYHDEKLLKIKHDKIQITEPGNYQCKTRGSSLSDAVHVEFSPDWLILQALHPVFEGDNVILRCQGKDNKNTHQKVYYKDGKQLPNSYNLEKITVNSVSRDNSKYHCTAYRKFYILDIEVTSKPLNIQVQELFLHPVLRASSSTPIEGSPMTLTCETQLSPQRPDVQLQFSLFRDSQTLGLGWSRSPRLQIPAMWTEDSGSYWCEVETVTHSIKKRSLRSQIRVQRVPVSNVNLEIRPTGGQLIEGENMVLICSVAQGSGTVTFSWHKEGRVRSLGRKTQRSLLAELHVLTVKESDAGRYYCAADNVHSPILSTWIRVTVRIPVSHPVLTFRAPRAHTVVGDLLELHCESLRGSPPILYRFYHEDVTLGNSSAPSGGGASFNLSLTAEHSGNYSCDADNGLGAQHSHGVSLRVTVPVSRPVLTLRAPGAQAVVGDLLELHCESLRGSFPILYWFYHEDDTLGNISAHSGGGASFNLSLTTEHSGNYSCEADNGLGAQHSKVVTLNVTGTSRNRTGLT

[2] = target: T2, human FcRH5 protein fragment (soluble) (human, UniProt Q96RD9 16-851); assay: SPR (BIACORE), hIgG capture format, 1:1 binding model, monovalent affinity; same numbers as FIG. 10B, Hu FcRH5 panel
T2 construct: whole entry named; also called soluble human FcRH5; Human FcRH5 (BIACORE analyte)
T2 sequence: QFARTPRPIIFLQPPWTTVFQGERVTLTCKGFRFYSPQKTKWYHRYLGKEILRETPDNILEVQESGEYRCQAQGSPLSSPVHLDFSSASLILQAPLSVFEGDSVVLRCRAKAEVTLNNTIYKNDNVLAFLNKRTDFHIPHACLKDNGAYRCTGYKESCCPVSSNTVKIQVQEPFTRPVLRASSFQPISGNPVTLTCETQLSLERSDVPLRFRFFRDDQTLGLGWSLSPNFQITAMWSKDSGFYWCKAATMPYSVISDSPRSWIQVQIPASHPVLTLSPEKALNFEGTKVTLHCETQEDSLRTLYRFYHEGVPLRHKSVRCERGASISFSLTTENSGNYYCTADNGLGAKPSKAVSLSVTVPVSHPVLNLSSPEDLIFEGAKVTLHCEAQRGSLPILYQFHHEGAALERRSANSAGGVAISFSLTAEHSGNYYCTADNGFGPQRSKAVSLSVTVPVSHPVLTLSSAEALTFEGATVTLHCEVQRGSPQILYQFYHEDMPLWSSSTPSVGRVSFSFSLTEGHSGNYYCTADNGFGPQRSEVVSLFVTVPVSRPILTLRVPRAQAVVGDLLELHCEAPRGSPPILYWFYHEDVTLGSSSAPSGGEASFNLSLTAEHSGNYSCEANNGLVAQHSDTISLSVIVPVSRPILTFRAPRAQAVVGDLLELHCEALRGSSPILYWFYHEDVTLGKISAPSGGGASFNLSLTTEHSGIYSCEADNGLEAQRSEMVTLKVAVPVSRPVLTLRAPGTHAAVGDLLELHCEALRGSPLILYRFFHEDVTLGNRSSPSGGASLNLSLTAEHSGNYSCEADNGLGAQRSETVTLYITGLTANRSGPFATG
Experimental: Kinetic characterization experiments were carried out (see Table 8). In these experiments, binding of soluble FcRH5 protein fragment to purified antibodies in human TDB antibody format was analyzed at six different non-zero concentrations (a 1:3 dilution series, one concentration injected twice as a replicate). Flow rate was set at 40 μl/min and association and dissociation monitored for 600 s.

[3] = target: T3, human FcRH5 (full-length, on cells) (human, UniProt Q96RD9 16-977); assay: cell-based or functional assay
T3 sequence: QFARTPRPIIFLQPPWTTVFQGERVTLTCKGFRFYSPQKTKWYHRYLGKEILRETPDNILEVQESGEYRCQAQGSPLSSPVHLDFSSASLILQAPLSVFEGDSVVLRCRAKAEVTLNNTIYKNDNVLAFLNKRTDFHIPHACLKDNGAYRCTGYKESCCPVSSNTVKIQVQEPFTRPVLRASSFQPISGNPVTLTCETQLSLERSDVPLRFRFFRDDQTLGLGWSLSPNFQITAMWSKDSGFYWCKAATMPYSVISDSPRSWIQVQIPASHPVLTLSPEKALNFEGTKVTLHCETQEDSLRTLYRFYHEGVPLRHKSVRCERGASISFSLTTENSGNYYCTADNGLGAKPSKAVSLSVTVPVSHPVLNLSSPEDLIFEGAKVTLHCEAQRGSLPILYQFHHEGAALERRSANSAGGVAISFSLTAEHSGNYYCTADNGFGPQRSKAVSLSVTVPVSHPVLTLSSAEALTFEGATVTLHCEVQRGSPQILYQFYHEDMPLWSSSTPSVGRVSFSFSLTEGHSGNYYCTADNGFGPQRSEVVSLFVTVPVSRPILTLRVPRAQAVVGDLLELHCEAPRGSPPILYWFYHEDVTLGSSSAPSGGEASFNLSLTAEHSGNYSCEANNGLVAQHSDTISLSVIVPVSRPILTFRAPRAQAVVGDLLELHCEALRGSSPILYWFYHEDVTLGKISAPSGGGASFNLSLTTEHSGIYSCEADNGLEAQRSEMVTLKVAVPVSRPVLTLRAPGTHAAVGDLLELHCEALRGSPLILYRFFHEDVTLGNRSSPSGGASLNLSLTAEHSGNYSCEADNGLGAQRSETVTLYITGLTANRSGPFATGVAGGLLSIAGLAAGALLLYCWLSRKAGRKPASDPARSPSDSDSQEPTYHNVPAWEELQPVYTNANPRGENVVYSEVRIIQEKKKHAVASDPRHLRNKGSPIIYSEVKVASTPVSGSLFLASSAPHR

B1: 1G7.v85/38E4.v1 TDB (bispecific antibody, V domains shown)
VH 1: EVQLVESGPGLVKPSETLSLTCTVSGFSLTRFGVHWVRQPPGKGLEWLGVIWRGGSTDYNAAFVSRLTISKDNSKNQVSLKLSSVTAADTAVYYCSNHYYGSSDYALDNWGQGTLVTVSS
VL 1: DIQMTQSPSSLSASVGDRVTITCKASQDVRNLVVWFQQKPGKAPKLLIYSGSYRYSGVPSRFSGSGSGTDFTLTISSLQPEDFATYYCQQHYSPPYTFGQGTKVEIK
VH 2: EVQLVQSGAEVKKPGASVKVSCKASGFTFTSYYIHWVRQAPGQGLEWIGWIYPENDNTKYNEKFKDRVTITADTSTSTAYLELSSLRSEDTAVYYCARDGYSRYYFDYWGQGTLVTVSS
VL 2: DIVMTQSPDSLAVSLGERATINCKSSQSLLNSRTRKNYLAWYQQKPGQSPKLLIYWTSTRKSGVPDRFSGSGSGTDFTLTISSLQAEDVAVYYCKQSFILRTFGQGTKVEIK
notes: knob-into-hole TDB; also called 1G7.v85 TDB; 1G7.v85 (TDB format)
Kd [1]: 92.4 nM | koff [1]: 0.00741 s⁻¹ | kon [1]: 80200 M⁻¹ s⁻¹ | Kd [2]: 2.35 nM | koff [2]: 0.00104 s⁻¹ | kon [2]: 441000 M⁻¹ s⁻¹ | killing of 293-FcRH5-PD-L1 cells by primed CD8+ cells, TDB alone, EC50 [3]: 0.63 ng/mL | killing of 293-FcRH5-PD-L1 cells, with anti-PD-1 antibody (pembrolizumab), EC50 [3]: 0.4 ng/mL | killing of 293-FcRH5-PD-L1 cells, with anti-PD-L1 antibody, EC50 [3]: 0.4 ng/mL | killing of MOLP-2 cells, EC50 [3]: 0.058 nM | killing of SVT2-FcRH5 cells in DMSO, IC50 [3]: 0.006 nM | killing of SVT2-FcRH5 cells in buffer, IC50 [3]: 0.007 nM | killing of SVT2-FcRH5 cells with 0.1 µM Dex, IC50 [3]: 0.016 nM | killing of plasma cells (PCs), median EC50 [3]: 25 ng/mL
